Experimental data published in paper PMC8092243, “Cryo-EM Structures of CusA Reveal a Mechanism of Metal-Ion Export” (mBio, 2021).

Molecular target: the molecule itself
Experiment: cryo-EM structure; CusA in lipid nanodiscs (MSP 1E3D1, E. coli total extract lipid), 0.7 mg/ml (2 uM), incubated with 20 uM Cu(I), 20 mM HEPES-NaOH pH 7.0; four trimer classes (EEE, EEB, EBB, BBB) from one sample

B1: CusA heavy-metal efflux pump (natural protein, E. coli)
chain: MIEWIIRRSVANRFLVLMGALFLSIWGTWTIINTPVDALPDLSDVQVIIKTSYPGQAPQIVENQVTYPLTTTMLSVPGAKTVRGFSQFGDSYVYVIFEDGTDPYWARSRVLEYLNQVQGKLPAGVSAELGPDATGVGWIYEYALVDRSGKHDLADLRSLQDWFLKYELKTIPDVAEVASVGGVVKEYQVVIDPQRLAQYGISLAEVKSALDASNQEAGGSSIELAEAEYMVRASGYLQTLDDFNHIVLKASENGVPVYLRDVAKVQIGPEMRRGIAELNGEGEVAGGVVILRSGKNAREVIAAVKDKLETLKSSLPEGVEIVTTYDRSQLIDRAIDNLSGKLLEEFIVVAVVCALFLWHVRSALVAIISLPLGLCIAFIVMHFQGLNANIMSLGGIAIAVGAMVDAAIVMIENAHKRLEEWQHQHPDATLDNKTRWQVITDASVEVGPALFISLLIITLSFIPIFTLEGQEGRLFGPLAFTKTYAMAGAALLAIVVIPILMGYWIRGKIPPESSNPLNRFLIRVYHPLLLKVLHWPKTTLLVAALSVLTVLWPLNKVGGEFLPQINEGDLLYMPSTLPGISAAEAASMLQKTDKLIMSVPEVARVFGKTGKAETATDSAPLEMVETTIQLKPQEQWRPGMTMDKIIEELDNTVRLPGLANLWVPPIRNRIDMLSTGIKSPIGIKVSGTVLADIDAMAEQIEEVARTVPGVASALAERLEGGRYINVEINREKAARYGMTVADVQLFVTSAVGGAMVGETVEGIARYPINLRYPQSWRDSPQALRQLPILTPMKQQITLADVADIKVSTGPSMLKTENARPTSWIYIDARDRDMVSVVHDLQKAIAEKVQLKPGTSVAFSGQFELLERANHKLKLMVPMTLMIIFVLLYLAFRRVGEALLIISSVPFALVGGIWLLWWMGFHLSVATGTGFIALAGVAAEFGVVMLMYLRHAIEAVPSLNNPQTFSEQKLDEALYHGAVLRVRPKAMTVAVIIAGLLPILWGTGAGSEVMSRIAAPMIGGMITAPLLSLFIIPAAYKLMWLHRHRVRK
notes: CusA, heavy-metal efflux (HME) RND pump of Escherichia coli; the cusA gene cloned into pET15b; the cryo-EM models incorporate residues Ile-5 to Trp-1039; Homotrimer embedded in lipid nanodiscs, in the presence of Cu(I); The membrane scaffold protein MSP 1E3D1 of the nanodisc is not a studied partner; also called CusA membrane protein; CusA trimer
Question: With B1 as the protein, how does the “stoichiometry N” value read?
Answer: Its value is 3.
